Here are results for two molecules from paper PMC6111544, “Development of a Novel Q-body Using an In Vivo Site-Specific Unnatural Amino Acid Incorporation System” (Sensors (Basel, Switzerland), 2018).

Where two headings read alike, the source gives them in different places.

For assay [1], the target named is T1, Nef protein (HIV-1 NL43), wild type (HIV-1 NL4-3 (NL43), strain).
T1 chain: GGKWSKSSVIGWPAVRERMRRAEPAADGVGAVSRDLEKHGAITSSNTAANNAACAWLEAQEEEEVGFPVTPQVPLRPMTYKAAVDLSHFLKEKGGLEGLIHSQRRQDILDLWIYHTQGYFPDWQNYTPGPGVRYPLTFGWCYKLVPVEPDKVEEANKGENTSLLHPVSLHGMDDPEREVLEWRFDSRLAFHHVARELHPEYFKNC

For assay [2], the target named is T1, Nef protein (HIV-1 NL43), wild type. Nature of the assay: far-Western, overlay or dot blot; Western blotting: Nef wt and Nef Δ2-11 resolved by SDS-PAGE, transferred to PVDF, probed with the anti-Nef antibody, detected with anti-streptavidin IgG-HRP; anti-His-tag antibody as control. The conditions noted are these: both partners purified.

B1: anti-Nef (antibody, V domains shown)
VH: QVQLQQSGAELVKPGASVKLSCTASGFNIKDTYMHWVKQRPEQGLEWIGRIDPANGNTKYDPKFQGKATITADTSSNTAYLQLSSLTSEDTAVYYCASYYGIYWGQGTTLTVSS
VL: DIKMTQSPSSLSASLGERVSLTCRASQEISGYLSWLQQKPDGTIKRLIYAVSTLDSGVPKRFSGSRSGSDYSLTISSLESEDFADYYCLQYATYPLTFGAGTKLELK
On to B1, for which the binding result in assay [1] is recorded as “binds”.

B2: anti-Nef antibody (single-chain variable fragment for which the antigen is HIV Nef protein) (scFv, V domains shown)
VH: EVKLVESGAELVRPGASVKLSCTASGFNIKDDYMHWVKQRPEQGLEWIGWIDPENGDTEYASKFQGKATITADTSSNTAYLQLSSLTSEDTAVYYCTTRDVWGAGTTVTVMA
VL: B1 VL
notes: scFv isolated in vitro from a constructed mouse antibody library; Section 2.4 describes expression in E. coli MV1184 and purification on an IgG-conjugated column for the antibody vectors; also called wt anti-Nef antibody; scFv
B2: the binding result in assay [2] was “binds”.
